Test results from patent publication US20130171153A1 (TRANSBIO, published 2013).
Each block holds one binder with its values, some of them ahead of it.

Legend:
[1] = target: T1, PI16-Fc (extracellular domain of human PI16, aa 28-443, tev-protease cleavage site, C-terminal human Fc) (human, UniProt P01857-1 104-330 = IgG part); experiment: SPR (ProteOn XPR36), mAb captured by anti-mouse IgG on GLM chip, PI16-Fc as analyte, Langmuir global fit
T1 construct: domain: Fc; also called recombinant PI16-Fc; native PI16-Fc; not shown: tev-protease cleavage site
Method: A proteOn sensor chip (GLM) was activated by flowing a mixture of 0.2 M EDC and 0.05 M sulpho-NHS over the chip ([…] at 30 μL/min for 5 minutes). Rabbit anti-mouse IgG whole molecule (Sigma M-7023) was then coupled to the chip in the vertical orientation by flowing 150 μL of a 50 μg/mL solution in 10 mM acetate buffer (pH 4.5) at 30 μL/min. The remaining coupling sites were then deactivated by flowing 150 μL of 1 M ethanolamine-HCl (pH 8.5) at 30 μL/min. Mouse monoclonal anti PI16 IgG was then allowed to flow over and be captured by the coupled anti-mouse IgG antibody by flowing 150 μL of 100 μg/mL IgG at 25 μL/min over a single channel of the sensor chip in the horizontal direction. […] PBS Tween 20 (0.005%) alone was passed over the remaining channel and served as a reference. Binding sensorgrams were collected and analysed with the ProteOn Manager 2.1×PR36 software using the Langmuir kinetic model to fit the data and determine the affinity constant (KD).
The published method (Nahshol et al., 2008) was used to measure the kinetics of the PI16 mab by anti-mouse capture. This is a relatively mild method coupling method and the association and dissociation curves and affinity measurement was performed with 4 dilutions of the PI16-Fc (FIG. 43 and Table 9). The data fitted well to a Langmuir kinetic model using global fit (all the curves fitted simultaneously).

[2] = target: T2, fragment of PI16 expressed by phage clone 12 (round 3) (human); experiment: phage ELISA of PI16 gene fragment clones
T2 construct: also called R3 12
T2 chain: LHMRWDEELAAFAKAYARQ

[3] = target: T3, fragment of PI16 expressed by phage clone 4 (round 3) (human); experiment: phage ELISA of PI16 gene fragment clones
T3 construct: also called R3 4
T3 chain: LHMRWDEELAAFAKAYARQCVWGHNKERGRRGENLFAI

[4] = target: T4, fragment of PI16 expressed by phage clone 7 (round 3) (human); experiment: phage ELISA of PI16 gene fragment clones
T4 construct: also called R3 7
T4 chain: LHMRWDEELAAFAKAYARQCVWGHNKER

[5] = target: T5, fragment of PI16 expressed by phage clone 10 (round 3) (human); experiment: phage ELISA of PI16 gene fragment clones
T5 construct: also called R3 10
T5 chain: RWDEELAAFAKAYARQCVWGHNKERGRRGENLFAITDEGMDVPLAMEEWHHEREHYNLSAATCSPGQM

[6] = target: T6, fragment of PI16 expressed by phage clone 15 (round 3) (human); experiment: phage ELISA of PI16 gene fragment clones
T6 construct: also called R3 15
T6 chain: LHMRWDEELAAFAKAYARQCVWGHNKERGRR

mouse PI16 = target: T7, mouse PI16 (mouse, UniProt Q9ET66 30-498, limits assumed); experiment: not described
T7 construct: also called Mus musculus PI16
T7 sequence: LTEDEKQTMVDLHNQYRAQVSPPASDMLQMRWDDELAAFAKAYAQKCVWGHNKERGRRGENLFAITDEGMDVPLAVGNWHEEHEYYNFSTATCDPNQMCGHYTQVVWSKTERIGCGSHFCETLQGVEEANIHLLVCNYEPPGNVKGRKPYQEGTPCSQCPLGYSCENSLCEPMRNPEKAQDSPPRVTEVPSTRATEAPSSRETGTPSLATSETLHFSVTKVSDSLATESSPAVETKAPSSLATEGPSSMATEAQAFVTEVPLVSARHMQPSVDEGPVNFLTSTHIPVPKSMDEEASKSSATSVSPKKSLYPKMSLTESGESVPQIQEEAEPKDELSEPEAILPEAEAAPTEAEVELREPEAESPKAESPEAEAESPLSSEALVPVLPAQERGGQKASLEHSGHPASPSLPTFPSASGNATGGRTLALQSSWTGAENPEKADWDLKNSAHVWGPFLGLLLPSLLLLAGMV

[7] = target: T8, Abnova recombinant PI16 protein (expressed using a wheat germ cell free system) (UniProt Q6UXB8 1-463, limits assumed); experiment: slot blot
T8 construct: Bought product; also called Rec. protein Abnova; Abnova recombinant protein
T8 sequence (looked up): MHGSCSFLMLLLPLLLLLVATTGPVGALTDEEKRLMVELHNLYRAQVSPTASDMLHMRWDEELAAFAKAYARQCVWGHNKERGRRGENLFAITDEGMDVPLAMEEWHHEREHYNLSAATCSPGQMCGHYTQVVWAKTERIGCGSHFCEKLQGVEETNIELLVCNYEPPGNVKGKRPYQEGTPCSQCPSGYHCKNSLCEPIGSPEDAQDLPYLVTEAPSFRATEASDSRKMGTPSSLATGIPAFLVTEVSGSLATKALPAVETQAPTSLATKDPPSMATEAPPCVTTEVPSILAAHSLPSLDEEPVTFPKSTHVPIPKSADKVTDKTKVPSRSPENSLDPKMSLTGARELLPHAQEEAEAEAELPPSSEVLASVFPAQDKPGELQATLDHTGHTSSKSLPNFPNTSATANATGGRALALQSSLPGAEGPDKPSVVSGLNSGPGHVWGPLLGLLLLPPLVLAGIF
Method: 100 μl of samples (as indicated) were loaded into each slot onto nitrocellulose membrane (Protran; Schleicher & Schuell) under vacuum. After loading, the blot was blocked for 1 hour at RT with 3% skim milk powder (Diploma) in PBS Tween 0.05% (block buffer). The primary Ab (secreted by CRCBT-02-001 or the polyclonal PI16 antibody from Abnova) was diluted in block buffer one in two and incubated on a platform rocker for 1 hour at RT. The blot was washed 3×5 minutes with PBS tween. Biotinylated horse anti mouse (Vector) 1/1000 diluted in block buffer was added and incubated for one hour at RT on rocking platform. The blot was washed 3×5 minutes with PBS tween. A dilution of 1/1000 SA:HRP (GE Healthcare) in block buffer was added and incubated for one hour at RT on rocking platform. The blot was washed 3×5 minutes with PBS tween. An appropriate volume of ECL solutions A and B (enough to cover membrane surface; ECL Advance Western Blotting Kit, GE Healthcare) was added and incubated for one minute with constant shaking. The blot was read immediately in a G:Box (Syngene) upon 15 seconds UV-exposure.
To determine the protein to which the monoclonal antibody binds, slot blots were performed.

[8] = target: T1, PI16-Fc (extracellular domain of human …); experiment: SPR (ProteOn XPR36), PI16-Fc amine-coupled to GLC chip, Fab as analyte, Langmuir global fit
Method: A ProteOn sensor chip (GLC) was activated by flowing a mixture of 0.2 M N-ethyl-N′-(3-dimethylaminopropyl) carbodiimide (EDC) and 0.05 M sulfo-N-hydroxysuccinimide (sulfo-NHS) over the chip (150 μL at 30 μL/min for 5 minutes). Recombinant PI16-Fc was coupled to the chip in the vertical orientation by flowing 150 μL of a 50 μg/mL solution in 10 mM acetate buffer (pH 4.5) at 30 μL/min. The remaining activated carboxyl group were then deactivated by flowing 150 μL of 1 M ethanolamine-HCl (pH 8.5) at 30 μL/min. […] PBS Tween 20 (0.005%) alone was passed over the remaining channel. Binding sensorgrams were collected and analysed with the ProteOn Manager 2.1×PR36 software using the Langmuir kinetic model to fit the data and determine the affinity constant (KD).
This coupling method was performed using various pHs to optimise the coupling of PI16-Fc to the GLC chip. The optimal coupling pH was 4.5. The association and dissociation curves and affinity measurement was performed with 3 dilutions of the PI16 Fab shown in FIG. 42 and Table 8. The data fitted well to a Langmuir kinetic model using global fit (all the curves fitted simultaneously).

T1 sequence (P01857 other isoform, or with tags, fused parts or gaps): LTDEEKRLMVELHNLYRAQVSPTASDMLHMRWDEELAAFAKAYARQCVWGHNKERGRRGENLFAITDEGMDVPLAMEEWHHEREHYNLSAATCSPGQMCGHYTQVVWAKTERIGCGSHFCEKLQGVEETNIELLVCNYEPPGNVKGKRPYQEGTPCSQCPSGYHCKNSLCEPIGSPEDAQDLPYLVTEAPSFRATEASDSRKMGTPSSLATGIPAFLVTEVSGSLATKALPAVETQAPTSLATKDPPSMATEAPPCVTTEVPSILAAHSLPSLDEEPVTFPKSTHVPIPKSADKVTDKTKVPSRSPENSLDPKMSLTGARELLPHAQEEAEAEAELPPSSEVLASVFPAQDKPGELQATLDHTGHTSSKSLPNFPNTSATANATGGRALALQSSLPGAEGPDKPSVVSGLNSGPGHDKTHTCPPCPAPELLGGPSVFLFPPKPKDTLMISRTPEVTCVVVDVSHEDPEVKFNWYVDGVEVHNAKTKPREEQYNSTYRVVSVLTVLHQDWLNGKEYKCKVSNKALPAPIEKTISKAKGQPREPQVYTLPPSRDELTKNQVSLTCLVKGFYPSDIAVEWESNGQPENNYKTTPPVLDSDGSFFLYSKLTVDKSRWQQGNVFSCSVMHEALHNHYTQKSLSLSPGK

Kd [1]: 2.56 nM
koff [1]: 0.000149 s⁻¹
kon [1]: 58200 M⁻¹ s⁻¹
binding result [2]: binds
binding result [3]: binds
binding result [4]: binds
binding result [5]: binds
binding result [6]: binds
binding result (mouse PI16): no binding
binding result [7]: no binding
B1: antibody produced by the hybridoma designated CRCBT-02-001 (ATCC PTA-10685) (antibody, V domains shown)
VH: FGGGLVQPGGSMKLSCVASGFTFSYYWMNWVRQSPEQGLEWIAEIRLQSNDYPTHYAESVKGRFTISRDDSKNSVYLQMNNLRPEDTGIYYCACRYADYFDHWGQGTTLTVSS
VL: VMTQSPAILSVYPGEKVTMTCRASLSVSYMHWCQQKPGSSPKSWIYATSNLASGVPARFSGSGSGTSYSLTISRVEAEDAATYYCQQWSSNPFTFGSGTKLEIKR
notes: constant regions are not; Used as hybridoma supernatant or as Protein G purified antibody; also called CRCBT-002-001; P1G5-P2B3

Kd [8]: 1.25 nM
koff [8]: 0.000372 s⁻¹
kon [8]: 297000 M⁻¹ s⁻¹
B2: CRCBT-02-001 Fab (Fab, V domains shown)
VH: B1 VH
VL: B1 VL
notes: also called PI16 Fab; Anti-PI16 Fab fragment
